Source: patent US10066025B2, “Compositions and methods for detecting, treating and preventing diseases and disorders” (YALE UNIVERSITY, priority 2012, dated 2018)

Tests used:
plasma norepinephrine = test: Plasma norepinephrine after renal IR (ELISA); assay type: in vivo; conditions: 1.5 mg/kg; mice subjected to renal IR; vehicle 2.4±0.13 ng/mL
Procedure: Adult male renalase deficient (KO) mice (Wu et al., 2011, Kidney Int 79: 853-860) on a C57BL/6 background were subjected to renal ischemia/reperfusion (IR) as described (Kim et al., 2009, Kidney Int 75: 809-823; Kim et al., 2010, Am J Physiol Renal Physiol 299(2):F347-58). Renalase KO or wild type (WT) mice (C57BL/6 from Harlan Labs, Indianapolis, Ind.) were subjected to sham-operation or to 20 min. (moderate) or 30 min. (severe) renal ischemia and 24 hr. reperfusion. To test the renal protective effects of recombinant human renalase, mice were pretreated with saline (vehicle) or with recombinant renalase (0.5, 1.5 or 4.5 mg/kg, s.c.) 10 min. prior to 30 min. renal ischemia. It was also tested whether renalase treatment after completion of renal ischemia also provides renal protection. Separate cohorts of mice were treated with saline or with renalase (1.5 mg/kg, s.c.) 30 min. or 60 min. after reperfusion of the ischemic kidney. To test whether blocking alpha receptors would mimic the renal protective effects of human recombinant renalase administration, phentolamine (an alpha receptor antagonist, 5 mg/kg, i.p.) was given in some mice 15 min. before renal ischemia.
Plasma norepinephrine in mice subjected to sham-operation or to renal IR was measured with a commercial ELISA kit according to the manufacturer's instructions (Rocky Mountain Diagnostics, Colorado Springs, Colo.).

[1] = system: renal ischemia/reperfusion (IR) injury; test: Histological detection of necrosis, apoptosis, neutrophil and macrophage infiltration after renal IR; assay type: in vivo, mice
Procedure: Adult male renalase deficient (KO) mice (Wu et al., 2011, Kidney Int 79: 853-860) on a C57BL/6 background were subjected to renal ischemia/reperfusion (IR) as described (Kim et al., 2009, Kidney Int 75: 809-823; Kim et al., 2010, Am J Physiol Renal Physiol 299(2):[…]-58). Renalase KO or wild type (WT) mice (C57BL/6 from Harlan Labs, Indianapolis, Ind.) were subjected to sham-operation or to 20 min. (moderate) or 30 min. (severe) renal ischemia and 24 hr. reperfusion. To test the renal protective effects of recombinant human renalase, mice were pretreated with saline (vehicle) or with recombinant renalase (0.5, 1.5 or 4.5 mg/kg, s.c.) 10 min. prior to 30 min. renal ischemia. It was also tested whether renalase treatment after completion of renal ischemia also provides renal protection. Separate cohorts of mice were treated with saline or with renalase (1.5 mg/kg, s.c.) 30 min. or 60 min. after reperfusion of the ischemic kidney. To test whether blocking alpha receptors would mimic the renal protective effects of human recombinant renalase administration, phentolamine (an alpha receptor antagonist, 5 mg/kg, i.p.) was given in some mice 15 min. before renal ischemia. An established grading scale of necrotic injury (0-4, Renal Injury Score) to the proximal tubules was used for the histopathological assessment of IR-induced damage as outlined by Jablonski et al. (1983, Transplantation 35: 198-204) and as described in previous studies (Lee et al., 2004, J Am Soc Nephrol 15: 102-111; Lee et al., 2004, Am J Physiol Renal Physiol 286: […]-[…]). Apoptosis was detected after renal IR with TUNEL staining as described (Park et al., 2011, Lab Invest 91: 63-84) using a commercially available in situ cell death detection kit (Roche, Indianapolis, Ind.) according to the instructions provided by the manufacturer. Kidney neutrophil and macrophage infiltrations were assessed with immunohistochemistry 24 hr. after IR as described previously (Park et al., 2011, Lab Invest 91: 63-84). Neutrophils and macrophages infiltrating the kidney were quantified in 5-7 randomly chosen 200× (neutrophils) or 400× (macrophages) microscope images fields in the corticomedullary junction and results were expressed as neutrophils counted per 200-400× field.

HK-2 cells = test: HK-2 cell cisplatin toxicity (WST-1 viability, western blot); assay type: cell-based, human; conditions: 20 μM cisplatin, 24 hrs
Procedure: Cultured HK-2 cells were incubated with 20 μM cisplatin for 24 hours with and without recombinant renalase. Renalase expression was examined by Western blot and cell viability (mitochondrial integrity) was determined spectrophotometrically using WST-1, a tetrazolium salt that is cleaved, by mitochondrial dehydrogenases of metabolically active and viable cells, to formazan (420-480 nm) (Boehringer Mannheim, Germany).
HK2 cells (human proximal tubular line) obtained from ATTC (Manassas, Va., USA) were cultured in DMEM/F12 supplemented with glutamine, 10% FBS and antibiotics, and were maintained at 37° C. in 5% CO2. Cells were exposed to cisplatin (20 μM) in the presence or absence of renalase for 24 hrs, and cell viability was assessed by the WST1 method (Roche Applied Science, Germany). Cells were then harvested in RIPA buffer (20 mM Tris-HCl pH 7.5, 150 mM NaCl, 1 mM Na2EDTA, 1 mM EGTA, 1% NP-40, 1% sodium deoxycholate, 2.5 mM sodium pyrophosphate, 1 mM β-glycerophosphate, 1 mM Na3VO4, 1 μg/ml leupeptin) supplemented with a protease and phosphatase inhibitor cocktail (Roche Applied Science, Germany). Proteins were separated by SDS-PAGE and Western blotting was carried out using the following antibodies: anti-renalase monoclonal (Desir et al., 2012, J Am Heart Assoc. 1:e002634; (Lee et al., 2013, J Am Soc Nephrol 24:445-455); anti caspase 3 (Cell Signaling Technology, MA, USA) and anti Bcl2 (Thermo Scientific, USA). Necrotic injury in HK-2 cells (ATCC, Manassas, Va.) was induced with exposure to 2 mM H2O2 for 2-8 hr and lactate dehydrogenase (LDH) released into cell culture media was measured as described using a commercial LDH assay kit (Promega, Madison, Wis.) (Lee and Emala, 2002, American journal of physiology. Renal physiology 282:F844-852).

systemic blood pressure = conditions: Xu et al., 2005, cited from earlier work
[2] = treated before renal ischemia, 30 min. ischemia, 24 hr. reperfusion

B1: recombinant renalase: human recombinant renalase, 38 kDa FAD-dependent amine oxidase; renalase polypeptide SEQ ID NO: 9 or 10 (protein, UniProt Q5VYX0 18-342, looked up)
Renalase: ALLRRQTSGPLYLAVWDKAEDSGGRMTTACSPHNPQCTADLGAQYITCTPHYAKKHQRFYDELLAYGVLRPLSSPIEGMVMKEGDCNFVAPQGISSIIKHYLKESGAEVYFRHRVTQINLRDDKWEVSKQTGSPEQFDLIVLTMPVPEILQLQGDITTLISECQRQQLEAVSYSSRYALGLFYEAGTKIDVPWAGQYITSNPCIRFVSIDNKKRNIESSEIGPSLVIHTTVPFGVTYLEHSIEDVQELVFQQLENILPGLPQPIATKCQKWRHSQVTNAAANCPGQMTLHHKPFLACGGDGFTQSNFDGCITSALCVLEALKNYI
In the case of B1, the plasma norepinephrine (plasma norepinephrine) is reported as 1.6 ± 0.2 ng/mL, the “apoptotic TUNEL-positive cells in the kidney” value ([1]; 1.5 mg/kg s.c. 10 min. before renal ischemia) is reported as “significantly reduced the number of apoptotic TUNEL-positive cells” and the “renal histological injury (hematoxylin and eosin)” value ([1]; 1.5 mg/kg, renalase WT mice vs. vehicle) is reported as “dramatically reduced injury”. The “Jablonski scale renal injury score (0-4)” value ([1]; renalase WT mice, 30 min. renal IR, 24 hr. after IR, vs. vehicle) was “significantly lower renal injury scores”, the “macrophages infiltrating the kidney after IR (F4/80)” value [1, 2] was “significantly reduced number of macrophages” and the “neutrophils infiltrating the kidney after IR” value [1, 2] was “significantly reduced number of neutrophils”. The “cell survival / protection against cisplatin toxicity” value (HK-2 cells) was “improved HK-2 cell survival”, the “cell survival / protection against cisplatin toxicity” value (HK-2 cells; listed as exogenous renalase) was “reversed” and the Bcl-2 expression (HK-2 cells; western blot) was “increased Bcl-2 expression”. For the same molecule, the caspase-3 activation (HK-2 cells; western blot) was “decreased caspase-3 activation”, the cellular renalase expression (HK-2 cells; western blot) was “restored cellular renalase expression” and the caspase-3 activation (HK-2 cells; western blot, listed as Renalase) was “inhibited caspase-3 activation”. For the same molecule, the “reduction of mean arterial pressure” value (systemic blood pressure; 4 mg/kg dose) was roughly 40% and the “blood pressure when injected into rodents” value (systemic blood pressure) was “marked decrease in blood pressure”.
